Data on 1 molecule can be found in paper PMC5307367 (2017).

The target of this assay is T1, recombinant His-tagged wild-type ZPR9 (UniProt Q969S3 1-477).
T1 chain: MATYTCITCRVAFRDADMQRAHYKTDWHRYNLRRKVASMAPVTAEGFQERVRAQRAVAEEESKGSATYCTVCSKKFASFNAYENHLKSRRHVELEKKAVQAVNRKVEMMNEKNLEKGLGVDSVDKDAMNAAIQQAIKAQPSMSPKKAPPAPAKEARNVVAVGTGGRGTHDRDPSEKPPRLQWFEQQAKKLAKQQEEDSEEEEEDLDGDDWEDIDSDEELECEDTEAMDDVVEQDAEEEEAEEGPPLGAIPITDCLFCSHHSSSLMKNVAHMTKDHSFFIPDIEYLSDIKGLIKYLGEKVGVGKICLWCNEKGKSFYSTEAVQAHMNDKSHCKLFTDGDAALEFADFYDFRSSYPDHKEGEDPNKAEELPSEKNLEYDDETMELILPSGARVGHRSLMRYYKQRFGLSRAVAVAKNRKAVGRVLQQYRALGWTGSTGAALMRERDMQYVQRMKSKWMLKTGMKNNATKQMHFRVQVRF
Kind of assay: ITC.

B1: recombinant His-tagged wild-type MPK38 (enzyme)
chain: MKDYDELLKYYELYETIGTGGFAKVKLACHVLTGEMVAIKIMDKNALGSDLPRVKTEIDALKSLRHQHICQLYHVLETKNKIFMVLEYCPGGELFDYIISQDRLSEEETRVVFRQILSAVAYVHSQGYAHRDLKPENLLFDENHKLKLIDFGLCAKPKGNKDYHLQTCCGSLAYAAPELIQGKSYLGSEADVWSMGILLYVLMCGFLPFDDDNVMALYKKIMRGKYEVPKWLSPSSILLLQQMLQVDPKKRISMRNLLNHPWVMQDYSCPVEWQSKTPLTHLDEDCVTELSVHHRSSRQTMEDLISSWQYDHLTATYLLLLAKKARGKPARLQLLSFSCGTASTTPKSKNLSLEDMSTSDDNCVAGLIDYELCEDKLLAPKTPQVTKHLAESNHAASKSPAPGVRRAVANKLMDKENVCTPKSSVKNEEQFVFSEPKIPVSKNQYKREIPASPTRFPTPAKARAQCLREAPVRTPGNSAGADTLTTGVISPERRCRSMDVDLNQAHMEDTPKKKGTNVFGSLERGLDKVLTALTRNKKKGSARDGPRKRKLHYNVTTTRLVNPDQLLSEIMAILPKKNVDFVQKGYTLKCQTQSDFGKVTMQFELEVCQLQRPDVVGIRRQRLKGDAWVYKRLVEDILSGCKM
B1: the Ka came to 39100 M⁻¹.
